Values belong to the substance of their own block, whether it stands above or below them.
Key:
[1] = tested on: T1, SYNZIP18-xtpS_A3T3C/E4A4T4TE (protein encoded by plasmid pJW62)
T1 sequence: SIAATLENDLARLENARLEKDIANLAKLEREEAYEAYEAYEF

[2] = tested on: xtpS_A3T3C/E4A4T4TE without SYNZIP (protein encoded by plasmid pJW64)
[3] = tested on: SYNZIP18-gxpS_A3T3C/E4A4T4TE (protein encoded by plasmid pJW76)
[4] = tested on: gxpS_A3T3C/E4A4T4TE without SYNZIP (protein encoded by plasmid pJW83)
[5] = molecular target: gxpS_A3T3C/E4A4T4TE without SYNZIP (protein encoded by plasmid pJW83); assay: cell-based or functional assay
[6] = tested on: GlbD second part (from the T domain) with SZ18
[7] = tested on: GlbD second part (from the T domain) without SZ
[8] = tested on: T2, SYNZIP18-xtpS_T2C3A3T3C/E4A4T4TE (protein encoded by plasmid pNA5)
T2 sequence: T1 sequence

[9] = tested on: xtpS_T2-TE without SYNZIP (protein encoded by plasmid pNA12)

Substance: xtpS_A1T1C/E2A2T2C3-SYNZIP19 (protein encoded by plasmid pNA1)
production of cyclic peptide 2 by NRPS-16 (C-A split, SZ19/18) relative to WT XtpS (HPLC-MS) [1]: 13% (NRPS-16)
production of linear peptide 1 by NRPS-16 (HPLC-MS) [1]: NRPS-16 showed no production of 1
peptide production by NRPS-16b (no N-terminal SZ) (HPLC-MS) [2]: showed no peptide production for control experiments NRPS-16b and NRPS-16d

Substance: xldS_C1A1T1C/E2A2T2C3-SYNZIP17 (protein encoded by plasmid pJW93)
peptide production by NRPS-5a in E. coli (HPLC-MS) [3]: showed the production of most expected derivatives
peptide production by NRPS-5b (negative control without SZ18) against NRPS-5a (HPLC-MS) [4]: the negative control (NRPS-5b) showed no significant difference in peptide production from the NRPS-5a construct

Substance: ambS_A1T1C/E2A2T2C3-SYNZIP17 (protein encoded by plasmid pJW91)
peptide production by NRPS-3a in E. coli (HPLC-MS), peptides 7, 8 and 9 [3]: The peptides 7, 8 and 9, which eluted at a retention time of 6 min, 7.1 min and 7 min, could be identified on the basis of their mass
production of peptide 9 by NRPS-3b (no N-terminal SZ) relative to NRPS-3a (HPLC-MS) [4]: peptide 9 to ˜18%
production of peptides 7 and 8 by NRPS-3b (no N-terminal SZ) relative to NRPS-3a (HPLC-MS) [4]: 7 and 8 were only produced to ˜50%

decrease of peptides 10 and 11 in NRPS-4b (no N-terminal SZ) against NRPS-4a (HPLC-MS) [5]: 80 % decrease
Substance: szeS_C1A1T1C/E2A2T2C3-SYNZIP17 (protein encoded by plasmid pJW92) (enzyme)

Substance: xtpS_A1T1C/E2A2T2C3 without SYNZIP (protein encoded by plasmid pJW63)
decrease in production of cyclic peptide 2 by NRPS-16c in relation to NRPS-16a (both SZs) [1]: control NRPS-16c shows a decrease in the production of cyclic peptide 2 by 80%
production of peptide 2 by NRPS-16c (no C-terminal SZ), % of WT level (HPLC-MS) [1]: NRPS-16c showed only a very low production of 2 with 3.2% of the WT level
peptide production by NRPS-16d (no SZs) (HPLC-MS) [2]: showed no peptide production for control experiments NRPS-16b and NRPS-16d

Substance: xtpS_A1T1C/E2A2T2C3-GS(4)-SYNZIP17 (protein encoded by plasmid pNA10)
increase in productivity for cyclic peptide 2 against the construct without linker (average over NRPS-15b, -15c, -15d) [1]: an average increase in productivity of ˜37% for cyclic 2 and ˜26% for linear peptide 1
increase in productivity for linear peptide 1 against the construct without linker (average over NRPS-15b, -15c, -15d) [1]: an average increase in productivity of ˜37% for cyclic 2 and ˜26% for linear peptide 1
production of cyclic product 2 by NRPS-15d (4 AS GS linker) (HPLC-MS) [1]: the cyclic product 2 with almost WT level was produced for all constructions with GS linker

Substance: GlbD first part (up to the A domain) with SZ17
glidobactin A production by the PKS/NRPS hybrid with divided GlbD [6]: leads to a complete synthesis of the glidobactin peptide
glidobactin A production, negative control without one SZ [7]: In the negative controls without in each case one or both SZs, there is virtually no glidobactin A production

Substance: xtpS_A1T1C/E2A2 without SYNZIP (protein encoded by plasmid pNA11)
decrease in productivity of NRPS-14c compared to NRPS-14a (told of the controls overall) [8]: Overall, the controls showed a decrease in productivity of 90% compared to NRPS-14a
production of peptides 2 and 1 by NRPS-14c (no C-terminal SZ), % of WT level (HPLC-MS) [8]: showed a very low production of the cyclic product 2 and absolutely no production of the linear peptide 1 at ˜3-10% of the WT level
decrease in productivity of NRPS-14d compared to NRPS-14a (told of the controls overall) [9]: Overall, the controls showed a decrease in productivity of 90% compared to NRPS-14a
production of peptides 2 and 1 by NRPS-14d (no SZs), % of WT level (HPLC-MS) [9]: showed a very low production of the cyclic product 2 and absolutely no production of the linear peptide 1 at ˜3-10% of the WT level

Substance: xtpS_A1T1C/E2A2T2C3-GS(8)-SYNZIP17 (protein encoded by plasmid pNA9)
increase in productivity for cyclic peptide 2 against the construct without linker (average over NRPS-15b, -15c, -15d) [1]: an average increase in productivity of ˜37% for cyclic 2 and ˜26% for linear peptide 1
increase in productivity for linear peptide 1 against the construct without linker (average over NRPS-15b, -15c, -15d) [1]: an average increase in productivity of ˜37% for cyclic 2 and ˜26% for linear peptide 1
production of cyclic product 2 by NRPS-15c (8 AS GS linker) (HPLC-MS) [1]: the cyclic product 2 with almost WT level was produced for all constructions with GS linker

Substance: xtpS_A1T1C/E2A2T2C3-GS(10)-SYNZIP17 (protein encoded by plasmid pNA8)
increase in productivity for cyclic peptide 2 against the construct without linker (average over NRPS-15b, -15c, -15d) [1]: an average increase in productivity of ˜37% for cyclic 2 and ˜26% for linear peptide 1
increase in productivity for linear peptide 1 against the construct without linker (average over NRPS-15b, -15c, -15d) [1]: an average increase in productivity of ˜37% for cyclic 2 and ˜26% for linear peptide 1
production of cyclic product 2 by NRPS-15b (10 AS GS linker) (HPLC-MS) [1]: the cyclic product 2 with almost WT level was produced for all constructions with GS linker

Substance: GlbD first part (up to the A domain) without SZ
glidobactin A production, negative control without one SZ [6]: In the negative controls without in each case one or both SZs, there is virtually no glidobactin A production
glidobactin A production, negative control without both SZs [7]: In the negative controls without in each case one or both SZs, there is virtually no glidobactin A production

Substance: szeS_C1A1T1C/E2A2T2C3-SYNZIP17 (protein encoded by plasmid pJW92)
peptide production by NRPS-4a in E. coli (HPLC-MS), peptides 10 and 11 [3]: Both the mass of 10 and the mass of 11 could be detected in the extracted ion chromatogram (EIC)

Source: patent publication US20220403363A1
